The results in this text go back to US20090208938A1 (CENTRE NATIONAL DE LA RECHERCHE SCIENTIFIQUE, published 2009).

The target of the experiment is T1, MCM2-7 protein complex (Xenopus egg extracts) (Xenopus, UniProt P55861 1-886; P49739 1-807; P30664 1-863; P55862 1-735; Q5FWY4 1-821; Q91876 …).
T1 construct: Endogenous complex of the six proteins MCM2 to MCM7; also called MCM2-7 proteins; MCM2-7 complex
The experiment is described as follows: co-immunoprecipitation with MCM3 antibody from S phase egg extracts, western blot with MCM8 antibody. On the technique in general: Immunoblotting shows a protein as a band on a membrane.

B1: Xenopus MCM8 protein (enzyme)
chain: MSQGWRGGSGGWRGGGGGGGNPYAGAWRGRPWRGRGQGGTWSRNNGRDPVCFAPPKPQLTQTTLDKYIPYKGWKLYFSEAYSDNSPFLEKVRAFEKFFKKQIELYDKDEIERKGSILVDYKELLQDEDLSASIPLSSELKDMPEKVLECMGLAIHQVLTKDLETHAADLQQQEGLRTEEAPIVNVPFIHARVFNYDTLTSLKNLRASLYGKYVALRGTVVRVGNIKPLCTKMAFSCNMCGDIQCFPLPDGKYTVPTKCPVPECRGRSFTANRSSPLTVTVDWQTIKVQELMSDDQREAGRIPRTVECELIQDLVDSCVPGDMITVTGIVKVSNTRDGGFKNKNNKCMFLLYIEANSVSNSKGQKGKSTEDSGNHGASMDFSLKDLYAIQEIQSQENLFQLIVNSLCPTIYGHELVKAGLSLALFGGCQKYADDKNRIPIRGDPHILVVGDPGLGKSQMLQAVCNVAPRGVYVCGNTTTTSGLTVTLSRDTTTGDFGLEAGALVLGDQGICGIDEFDKMGNQHQALLEAMEQQSISLAKAGIVCSLPARTSIIAAANPVGGHYNKGKTVSENLKMGSALLSRFDLVFILVDTPNEDHDHLLSEHVMAMRSGAKEIQSVDITRINTQNSNTSILEVPSERPLGERLKLRTGEHFDALPHQLLRKFVGYARQYVHPSLSPDAAQILQDFYLELRKQNQGIDSTPITTRQLESLIRLTEARARLELREKATKEDAEEVVQIMKYSLLGTFSDEFGKLDFQRSQHGSGMSNRSKAKKFVSALNRVAEQTYNNLFEFQQLRQIARELQIQVIDFEAFIGSLNDQGYLLKKGPRVFQLQTM
notes: Full-length protein: translated in vitro in rabbit reticulocytes, or the endogenous protein of Xenopus egg extracts; also called 90 kDa polypeptide
As for B1, the binding result was “no binding”.
